Data taken from patent US20200377590A1 (Hoffmann-La Roche, published 2020).
Where a chain is given by its changes, count along the chain named.

T1: CD81 (UniProt P60033 1-236, limits assumed)
T1 construct: whole, on cells; also called CD81 receptor
T1 sequence (looked up): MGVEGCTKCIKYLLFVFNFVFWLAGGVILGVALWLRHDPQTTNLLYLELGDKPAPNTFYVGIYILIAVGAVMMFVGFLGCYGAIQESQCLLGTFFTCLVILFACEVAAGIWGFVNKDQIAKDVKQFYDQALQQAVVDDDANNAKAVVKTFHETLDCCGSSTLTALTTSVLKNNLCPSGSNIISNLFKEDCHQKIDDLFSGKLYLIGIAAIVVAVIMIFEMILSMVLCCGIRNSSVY

B1: CD81K04 HC JA_GG-14-hVH_1_69-GA / LC JA_GG-09-hVK_4_1 (antibody, V domains shown)
VH: QVQLVQSGAEVKKPGSSVKVSCKASGYTFSSSWMNWVRQAPGQGLEWMGRIYSGDGDAIYNGKFKGKATITADESTSTAYMELSSLRSEDTAVYYCAREGKTGDLLLRSWGQGTLVTVSS
VL: DIVMTQSPDSLAVSLGERATINCKSSKSVSTSIYSYMHWYQQKPGQPPKLLIKYASTRESGVPDRFSGSGSGTDFTLTISSLQAEDVAVYYCEHSREFPFTFGQGTKLEIK
notes: human constant region
B2: CD81K04 HC JA_GG-14-hVH_1_69-GA / LC JA_GG-10-hVK_4_1 (antibody, V domains shown)
VH: B1 VH
VL: B1 VL with K24R, S25A, T57Y, R58L
notes: human constant region
B3: CD81K04 HC JA_GG-15-hVH_1_3 / LC GG-02-hVK_4_1 (antibody, V domains shown)
VH: B1 VH with S16A, G44R, K67R, A68V, E74T, T76A
VL: B1 VL with K53Y, T57Y, E93Q
notes: human constant region
B4: CD81K04 HC JA_GG-15-hVH_1_3 / LC GG-03-hVK_4_1 (antibody, V domains shown)
VH: B1 VH with S16A, G44R, K67R, A68V, E74T, T76A
VL: B1 VL with M37L, H38A, K53Y, T57Y, E93Q
notes: human constant region
B5: CD81K04 HC JA_GG-15-hVH_1_3 / LC GG-04-hVK_4_1 (antibody, V domains shown)
VH: B1 VH with S16A, G44R, K67R, A68V, E74T, T76A
VL: B1 VL with M37L, H38A, K53Y, E93Q, F100Y
notes: human constant region
B6: CD81K04 HC JA_GG-15-hVH_1_3 / LC JA_GG-08-hVK_4_1 (antibody, V domains shown)
VH: B1 VH with S16A, G44R, K67R, A68V, E74T, T76A
VL: B1 VL with T57Y, R58L
notes: human constant region
B7: CD81K04 HC JA_GG-15-hVH_1_3 / LC JA_GG-09-hVK_4_1 (antibody, V domains shown)
VH: B1 VH with S16A, G44R, K67R, A68V, E74T, T76A
VL: B1 VL
notes: human constant region
B8: CD81K04 HC JA_GG-15-hVH_1_3 / LC JA_GG-10-hVK_4_1 (antibody, V domains shown)
VH: B1 VH with S16A, G44R, K67R, A68V, E74T, T76A
VL: B1 VL with K24R, S25A, T57Y, R58L
notes: human constant region
B9: CD81K04 HC JA_GG-16-hVH_1_3 / LC GG-02-hVK_4_1 (antibody, V domains shown)
VH: B1 VH with S16A, K67R, A68V, E74T, T76A
VL: B1 VL with K53Y, T57Y, E93Q
notes: human constant region
B10: CD81K04 HC JA_GG-16-hVH_1_3 / LC GG-03-hVK_4_1 (antibody, V domains shown)
VH: B1 VH with S16A, K67R, A68V, E74T, T76A
VL: B1 VL with M37L, H38A, K53Y, T57Y, E93Q
notes: human constant region
B11: CD81K04 HC JA_GG-16-hVH_1_3 / LC GG-04-hVK_4_1 (antibody, V domains shown)
VH: B1 VH with S16A, K67R, A68V, E74T, T76A
VL: B1 VL with M37L, H38A, K53Y, E93Q, F100Y
notes: human constant region
B12: CD81K04 HC JA_GG-16-hVH_1_3 / LC JA_GG-09-hVK_4_1 (antibody, V domains shown)
VH: B1 VH with S16A, K67R, A68V, E74T, T76A
VL: B1 VL
notes: human constant region
B13: CD81K04 HC JA_GG-16-hVH_1_3 / LC JA_GG-10-hVK_4_1 (antibody, V domains shown)
VH: B1 VH with S16A, K67R, A68V, E74T, T76A
VL: B1 VL with K24R, S25A, T57Y, R58L
notes: human constant region
B14: CD81K04 HC K04_JA-13-hVH_1_3 / LC GG-02-hVK_4_1 (antibody, V domains shown)
VH: B1 VH with S16A, G44R, K67R, A68V, A72R, E74T, T76A
VL: B1 VL with K53Y, T57Y, E93Q
notes: human constant region
B15: CD81K04 HC K04_JA-13-hVH_1_3 / LC GG-03-hVK_4_1 (antibody, V domains shown)
VH: B1 VH with S16A, G44R, K67R, A68V, A72R, E74T, T76A
VL: B1 VL with M37L, H38A, K53Y, T57Y, E93Q
notes: human constant region
B16: CD81K04 HC K04_JA-13-hVH_1_3 / LC GG-04-hVK_4_1 (antibody, V domains shown)
VH: B1 VH with S16A, G44R, K67R, A68V, A72R, E74T, T76A
VL: B1 VL with M37L, H38A, K53Y, E93Q, F100Y
notes: human constant region
B17: CD81K04 HC K04_JA-13-hVH_1_3 / LC JA_GG-08-hVK_4_1 (antibody, V domains shown)
VH: B1 VH with S16A, G44R, K67R, A68V, A72R, E74T, T76A
VL: B1 VL with T57Y, R58L
notes: human constant region
B18: CD81K04 HC K04_JA-13-hVH_1_3 / LC JA_GG-09-hVK_4_1 (antibody, V domains shown)
VH: B1 VH with S16A, G44R, K67R, A68V, A72R, E74T, T76A
VL: B1 VL
notes: human constant region
B19: CD81K04 HC K04_JA-13-hVH_1_3 / LC JA_GG-10-hVK_4_1 (antibody, V domains shown)
VH: B1 VH with S16A, G44R, K67R, A68V, A72R, E74T, T76A
VL: B1 VL with K24R, S25A, T57Y, R58L
notes: human constant region
B20: CD81K04 HC K04_JA_GG-17-hVH_1_3 / LC GG-02-hVK_4_1 (antibody, V domains shown)
VH: B1 VH with S16A, G44R, A58T, N61S, G62Q, K65Q, K67R, A68V, E74T, T76A
VL: B1 VL with K53Y, T57Y, E93Q
notes: human constant region
B21: CD81K04 HC K04_JA_GG-17-hVH_1_3 / LC GG-04-hVK_4_1 (antibody, V domains shown)
VH: B1 VH with S16A, G44R, A58T, N61S, G62Q, K65Q, K67R, A68V, E74T, T76A
VL: B1 VL with M37L, H38A, K53Y, E93Q, F100Y
notes: human constant region
B22: CD81K04 HC K04_JA_GG-17-hVH_1_3 / LC JA_GG-08-hVK_4_1 (antibody, V domains shown)
VH: B1 VH with S16A, G44R, A58T, N61S, G62Q, K65Q, K67R, A68V, E74T, T76A
VL: B1 VL with T57Y, R58L
notes: human constant region
B23: CD81K04 HC K04_JA_GG-17-hVH_1_3 / LC JA_GG-09-hVK_4_1 (antibody, V domains shown)
VH: B1 VH with S16A, G44R, A58T, N61S, G62Q, K65Q, K67R, A68V, E74T, T76A
VL: B1 VL
notes: human constant region
B24: CD81K04 HC K04_JA_GG-17-hVH_1_3 / LC JA_GG-10-hVK_4_1 (antibody, V domains shown)
VH: B1 VH with S16A, G44R, A58T, N61S, G62Q, K65Q, K67R, A68V, E74T, T76A
VL: B1 VL with K24R, S25A, T57Y, R58L
notes: human constant region
B25: CD81K04 HC GG-02-hVH_1_69 / LC JA_GG-07-hVK_7_3 (antibody, V domains shown)
VH: B1 VH with G62Q, K65Q, K67R, A68V
VL: DIVLTQSPASLAVSPGQRATITCRASKSVSTSIYSYMHWYQQKPGQPPKLLIKYASNKDTGVPARFSGSGSGTDFTLTINPVEANDAANYYCLHSREFPYTFGQGTKLEIK
notes: human constant region
B26: CD81K04 HC GG-03-hVH_1_69 / LC JA_GG-07-hVK_7_3 (antibody, V domains shown)
VH: B1 VH with N61A, G62Q, K65Q, K67R, A68V
VL: B25 VL
notes: human constant region
B27: CD81K04 HC GG-04-hVH_1_69 / LC JA_GG-07-hVK_7_3 (antibody, V domains shown)
VH: B1 VH with G62Q, K65Q, K67R
VL: B25 VL
notes: human constant region
B28: CD81K04 HC GG-05-hVH_1_18 / LC JA_GG-07-hVK_7_3 (antibody, V domains shown)
VH: QVQLVQSGAEVKKPGASVKVSCKASGYTFSSSWMNWVRQAPGQGLEWMGRIYSGDGDAIYAQKLQGRVTMTTDTSTSTAYMELRSLRSDDTAVYYCAREGKTGDLLLRSWGQGTLVTVSS
VL: B25 VL
notes: human constant region
B29: CD81K04 HC JA_GG-13-hVH_1_69 / LC JA_GG-07-hVK_7_3 (antibody, V domains shown)
VH: B1 VH with Y27G, N61A, G62Q, K65Q, K67R, A68V
VL: B25 VL
notes: human constant region
B30: CD81K04 HC JA_GG-14-hVH_1_3 / LC JA_GG-07-hVK_7_3 (antibody, V domains shown)
VH: B1 VH with S16A, K67R, E74T, T76A
VL: B25 VL
notes: human constant region
B31: CD81K04 HC JA_GG-15-hVH_1_3 / LC JA_GG-07-hVK_7_3 (antibody, V domains shown)
VH: B1 VH with S16A, G44R, K67R, A68V, E74T, T76A
VL: B25 VL
notes: human constant region
B32: CD81K04 HC JA_GG-16-hVH_1_3 / LC JA_GG-07-hVK_7_3 (antibody, V domains shown)
VH: B1 VH with S16A, K67R, A68V, E74T, T76A
VL: B25 VL
notes: human constant region
B33: CD81K04 HC K04_JA-13-hVH_1_3 / LC JA_GG-07-hVK_7_3 (antibody, V domains shown)
VH: B1 VH with S16A, G44R, K67R, A68V, A72R, E74T, T76A
VL: B25 VL
notes: human constant region
B34: CD81K04 HC K04_JA_GG-17-hVH_1_3 / LC JA_GG-07-hVK_7_3 (antibody, V domains shown)
VH: B28 VH with G44R, A58T, A61S, L64F, M70I, T72A, T76A, R84S, D89E
VL: B25 VL
notes: human constant region
B35: CD81K04 HC GG-02-hVH_1_69 / LC GG-05-hVK_3_11 (antibody, V domains shown)
VH: B1 VH with G62Q, K65Q, K67R, A68V
VL: EIVLTQSPATLSLSPGERATLSCRASKSVSTSIYSYLHWYQQKPGQAPRLLIYYASNRETGIPARFSGSGSGTDFTLTISSLEPEDFAVYYCQHSREFPFTFGQGTKLEIK
notes: human constant region
B36: CD81K04 HC GG-03-hVH_1_69 / LC GG-05-hVK_3_11 (antibody, V domains shown)
VH: B1 VH with N61A, G62Q, K65Q, K67R, A68V
VL: B35 VL
notes: human constant region
B37: CD81K04 HC GG-04-hVH_1_69 / LC GG-05-hVK_3_11 (antibody, V domains shown)
VH: B1 VH with G62Q, K65Q, K67R
VL: B35 VL
notes: human constant region
B38: CD81K04 HC JA_GG-13-hVH_1_69 / LC GG-05-hVK_3_11 (antibody, V domains shown)
VH: B1 VH with Y27G, N61A, G62Q, K65Q, K67R, A68V
VL: B35 VL
notes: human constant region
B39: CD81K04 HC JA_GG-14-hVH_1_3 / LC GG-05-hVK_3_11 (antibody, V domains shown)
VH: B1 VH with S16A, K67R, E74T, T76A
VL: B35 VL
notes: human constant region
B40: CD81K04 HC JA_GG-14-hVH_1_69 / LC GG-05-hVK_3_11 (antibody, V domains shown)
VH: B1 VH
VL: B35 VL
notes: human constant region
B41: CD81K04 HC JA_GG-14-hVH_1_69-GA / LC GG-05-hVK_3_11 (antibody, V domains shown)
VH: B1 VH
VL: B35 VL
notes: human constant region
B42: CD81K04 HC JA_GG-15-hVH_1_3 / LC GG-05-hVK_3_11 (antibody, V domains shown)
VH: B1 VH with S16A, G44R, K67R, A68V, E74T, T76A
VL: B35 VL
notes: human constant region
B43: CD81K04 HC JA_GG-16-hVH_1_3 / LC GG-05-hVK_3_11 (antibody, V domains shown)
VH: B1 VH with S16A, K67R, A68V, E74T, T76A
VL: B35 VL
notes: human constant region
B44: CD81K04 HC K04_JA-13-hVH_1_3 / LC GG-05-hVK_3_11 (antibody, V domains shown)
VH: B1 VH with S16A, G44R, K67R, A68V, A72R, E74T, T76A
VL: B35 VL
notes: human constant region

Target: T1, CD81
Experiment: cell ELISA;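 also: antibody binding to HuH7 cells expressing CD81 versus a CD81-negative HuH7 control line, bound antibody detected by secondary reagent, absorbance at 450 nm with 620 nm reference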
Experimental: For the binding cell ELISA assay, HuH7-Rluc-H3 (positive cell line expressing CD81) and HuH7-Rluc-L1 (negative control cell line) were propagated in F-12 DMEM medium with 10% FCS at 37° C. and 5% CO₂. On day 1, the cells were trypsinized at approximately 90% confluence and resuspended at 4×10⁵ cells/mL. […] On day 2, the antibody samples to be tested were prepared in a separate polypropylene round bottom plate with a twofold desired concentration with a final volume of 120 μl. All of the assay samples were diluted in cell culture medium. […] After fixation, each well was washed 3 times with 200 μL PBS/0.05% Tween. The secondary incubation step for detection of bound anti-CD81 antibodies was performed for 2 h at room temperature on a reciprocal shaker. […] Each well was washed three times with 200 μL PBS/0.05% Tween to remove unbound antibodies. […] The absorbance was read using the ELISA Tecan reader at 450 nm with 620 nm reference wavelength.

Binder	ELISA data
B1	0.888
B2	0.733
B3	0.602
B4	0.545
B5	0.3
B6	0.993
B7	0.936
B8	0.915
B9	0.596
B10	0.437
B11	0.263
B12	1.08
B13	0.88
B14	0.475
B15	0.423
B16	0.152
B17	0.985
B18	0.864
B19	0.861
B20	0.709
B21	0.189
B22	0.941

Binder	ELISA data
B23	0.911
B24	0.855
B25	0.13
B26	0.091
B27	0.12
B28	0.14
B29	0.087
B30	0.154
B31	0.262
B32	0.161
B33	0.255
B34	0.219
B35	0.229
B36	0.204
B37	0.352
B38	0.228
B39	0.696
B40	0.403
B41	0.376
B42	0.699
B43	0.631
B44	0.56
